First the molecules themselves.
B2: biotinylated bovine FI (enzyme)
chain 1: EDNFRKRGKSKAVKKSEAHHAPEASLSKETEASSEVKPTSTQDTSQKDFVDKKCLTEKHTHLSCNKVFCQPWQKCIDGTCLCKLPYQCPKNGTRVCSTNGKSYSTYCQQKSFECYRPEAKFLKSGACTGGGQFSVSLSNGKQDSEGIVAVKLADLDTKMFVCGDSWSITEANVACIDRGFQLGALDTHRRDPDPNSAECLHVRCRGLETSLAECTFTKGVHNSEGLAGVVCYTESAAPPKKDSFQCVNGKRIPQKKACDGVNDCVDKSDELCCKDCRGEGFLCKSGVCIPKQYKCNGELDCITGEDEVGCEETGHPEIKEAAEMLTADMDAERKFTKSFLPKLSCGVKNNMHI
chain 2: VVGGKPAKMGEFPWQMAIKEGDKIHCGGIYIGGCWILTAAHCVRISRMHRYQIWTSFTDWLRPGFQTVVHSVNRIIIHENYNGTTYQNDIALIEMKKRPNEKECVLSKSIPACVPWSPYLFQPNDKCIVSGWGREKDNQKVYSLRWGEVHLINNCSEFYPGRYFEKEMQCAGTDDGSIDACKGDSGGPLVCQDVNNVTYVWGVVSWGENCGKSEFPGVYTKVANYFDWISQHVGRSLISQHNI
modifications: biotin (EZ-link NHS-biotin; sites not stated) | biotin (EZ-link NHS-biotin; sites not stated)

The target in assay [1] is B2. As to the kind of experiment: BLI. On the technique in general: In BLI a coated tip is dipped into the sample, and binding shifts an interference pattern.
The target of assay [2] is B2. In words: BLI; kinetic fit.
Assay [3] addresses T1, PmSLP-1^95-318 SERp (Pasteurella multocida strain 36950). In words: BLI.
The target of assay [4] is T1, PmSLP-1^95-318 SERp. As to the kind of experiment: BLI; kinetic fit.

B1: PmSLP-1^15-318 (domain or fragment)
chain: MEKRTVTIPQAQKVAEKPALTIQTVVTSPTTPIKAPSLAPTIDTAPKQNPVPTAQITATLPAEPVKVPVLIPEVNKTLLETSTNPVKDSYNKDAVFTYELIANPDADYSDQKLILKKEISYIKLNLGINQDNKNAPSYIFNLLDDNVYYGFYRDTQDMNRIENKYTYAFKKEAENFDNLQKFNATYEGQFWFSSIDTPNVPTVARAFLTYNNGRVDGEILAKHWNEKLFQITGFDNNPRKVEIFPTVEYLPNSGTRLTKGATSPHRFQMDLHFINSTNGEKNKYLVGQGSTEQYWGVLGMEKKQELALVPR
Regarding B1, the koff – broadly, the rate constant with which the complex falls apart – with biotinylated bovine FI [1] is 0.0059 s⁻¹. The affinity with biotinylated bovine FI [2], expressed as Kd, was 18 nM.

B2 had an off-rate constant (koff) with PmSLP-1^95-318 SERp [3] of 0.008 s⁻¹. Besides, the affinity with PmSLP-1^95-318 SERp [4], expressed as Kd, was 30 nM.

The values above are taken from PMC12080921 (2025).
